Data from patent publication US20210283246A1.

Target: HBsAg (patient serum)
Experiment: Jacalin-bead fractionation of patient serum, HBsAg measured by CLIA

“Jacalin lectin (from UniProt P18670 1-133)” was tested. Which share of the total serum HBsAg that binds to Jacalin did it give?
Its share of the total serum HBsAg that binds to Jacalin is 5%.
